# Data reported in patent publication US20240101645A1 (HENRY M JACKSON FOUNDATION FOR THE ADVANCEMENT OF MILITARY …, published 2024).
# T1: HCoV-HKU1 spike antigens (bead panel) (HCoV-HKU1, UniProt Q5MQD0 13-1300)
# T1 sequence: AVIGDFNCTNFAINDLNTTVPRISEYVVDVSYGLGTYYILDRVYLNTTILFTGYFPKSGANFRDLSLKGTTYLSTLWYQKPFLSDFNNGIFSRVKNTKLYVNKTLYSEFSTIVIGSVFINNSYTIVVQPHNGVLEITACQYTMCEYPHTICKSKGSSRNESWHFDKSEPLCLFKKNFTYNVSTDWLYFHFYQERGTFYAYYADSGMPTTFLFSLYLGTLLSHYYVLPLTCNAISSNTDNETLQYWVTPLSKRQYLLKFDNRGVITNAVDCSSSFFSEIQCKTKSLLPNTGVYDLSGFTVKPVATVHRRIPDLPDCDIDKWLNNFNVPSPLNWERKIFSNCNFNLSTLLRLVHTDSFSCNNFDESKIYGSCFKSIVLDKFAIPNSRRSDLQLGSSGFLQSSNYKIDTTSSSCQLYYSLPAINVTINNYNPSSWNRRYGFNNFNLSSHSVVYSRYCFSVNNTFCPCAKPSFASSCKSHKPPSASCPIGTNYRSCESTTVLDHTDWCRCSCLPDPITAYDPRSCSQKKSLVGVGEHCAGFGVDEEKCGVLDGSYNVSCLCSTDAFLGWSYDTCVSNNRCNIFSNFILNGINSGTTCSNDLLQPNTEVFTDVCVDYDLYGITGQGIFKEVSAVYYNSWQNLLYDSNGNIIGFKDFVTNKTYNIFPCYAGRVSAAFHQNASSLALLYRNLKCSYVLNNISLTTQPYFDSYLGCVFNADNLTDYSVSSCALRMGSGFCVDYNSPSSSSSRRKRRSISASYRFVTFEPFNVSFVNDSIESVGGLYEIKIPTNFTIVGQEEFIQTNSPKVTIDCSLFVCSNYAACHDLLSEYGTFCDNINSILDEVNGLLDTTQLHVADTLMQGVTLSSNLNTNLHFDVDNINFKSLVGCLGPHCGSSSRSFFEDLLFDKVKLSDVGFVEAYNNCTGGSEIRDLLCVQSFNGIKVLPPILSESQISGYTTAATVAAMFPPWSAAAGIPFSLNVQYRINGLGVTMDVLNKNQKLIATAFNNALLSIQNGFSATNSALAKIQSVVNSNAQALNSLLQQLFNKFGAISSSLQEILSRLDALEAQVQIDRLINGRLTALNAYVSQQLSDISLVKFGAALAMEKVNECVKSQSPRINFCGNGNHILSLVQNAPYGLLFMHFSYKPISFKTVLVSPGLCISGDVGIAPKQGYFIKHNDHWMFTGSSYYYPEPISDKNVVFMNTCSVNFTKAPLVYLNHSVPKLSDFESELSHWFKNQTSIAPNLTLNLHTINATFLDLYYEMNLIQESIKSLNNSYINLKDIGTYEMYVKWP
# T2: HCoV-229E spike antigens (bead panel) (HCoV-229E, UniProt P15423 16-1115)
# T2 sequence: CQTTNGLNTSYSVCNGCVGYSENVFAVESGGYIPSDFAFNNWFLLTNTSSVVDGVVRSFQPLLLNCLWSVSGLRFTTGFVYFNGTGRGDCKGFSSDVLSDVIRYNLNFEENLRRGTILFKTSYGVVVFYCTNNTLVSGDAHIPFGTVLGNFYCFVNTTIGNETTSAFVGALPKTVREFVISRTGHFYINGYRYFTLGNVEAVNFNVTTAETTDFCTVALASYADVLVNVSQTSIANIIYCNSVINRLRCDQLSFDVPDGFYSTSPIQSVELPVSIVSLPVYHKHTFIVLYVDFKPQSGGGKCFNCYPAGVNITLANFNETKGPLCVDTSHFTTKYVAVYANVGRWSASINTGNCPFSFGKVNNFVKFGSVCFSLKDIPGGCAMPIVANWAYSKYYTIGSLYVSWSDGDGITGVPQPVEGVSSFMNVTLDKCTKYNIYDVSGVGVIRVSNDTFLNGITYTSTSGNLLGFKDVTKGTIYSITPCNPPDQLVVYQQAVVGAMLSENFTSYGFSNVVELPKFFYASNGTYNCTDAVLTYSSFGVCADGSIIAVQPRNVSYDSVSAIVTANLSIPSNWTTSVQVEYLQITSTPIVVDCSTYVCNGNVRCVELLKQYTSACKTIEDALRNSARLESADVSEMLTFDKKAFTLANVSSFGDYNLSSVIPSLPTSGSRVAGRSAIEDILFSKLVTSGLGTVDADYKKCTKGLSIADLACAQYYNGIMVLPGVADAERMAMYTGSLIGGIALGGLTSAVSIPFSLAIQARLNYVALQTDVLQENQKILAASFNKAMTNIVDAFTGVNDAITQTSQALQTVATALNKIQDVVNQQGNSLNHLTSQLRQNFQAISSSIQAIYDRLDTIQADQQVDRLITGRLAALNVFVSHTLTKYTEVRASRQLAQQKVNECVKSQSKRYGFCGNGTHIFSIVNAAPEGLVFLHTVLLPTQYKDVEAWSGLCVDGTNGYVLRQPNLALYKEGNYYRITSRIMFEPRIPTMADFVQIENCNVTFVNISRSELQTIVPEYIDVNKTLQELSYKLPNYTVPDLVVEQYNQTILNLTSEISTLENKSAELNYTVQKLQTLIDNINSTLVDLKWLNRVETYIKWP
# Legend:
# [1] = biological target: SARS-CoV-2 S on pseudovirions (Wuhan Hu-1 / IL1/2020, last 18 amino acids removed) (SARS-CoV-2, UniProt P0DTC2 14-1273); test: cell-based or functional assay
# [2] = biological target: T1, HCoV-HKU1 spike antigens (bead panel); test: multiplex bead assay
# [3] = biological target: SARS-CoV-1 spike antigens (bead panel) (SARS-CoV-1, UniProt P59594 14-1195); test: multiplex bead assay
# [4] = biological target: T2, HCoV-229E spike antigens (bead panel); test: multiplex bead assay
Binder,"Mean IC50, pSV neutralization [1] [µg/ml]","Mean IC80, pSV neutralization [1] [µg/ml]",binding result [2],binding result [3],binding result [4]
"COV_2008 (antibody, V domains shown, human IgG1) VH: QVRVVQSGAEVKNPGASVKVSCKVSGYTLTELSIHWVRQAPGNGLEWMGGFDPEDGETIYAQKFQGRVTMTEDTSTDTAYMELSSLRSDDTAVYYCATAGAITGTPRNFYYYYGMDVWGQGTTVTVSS VL: not shown",0.02,0.31,no binding,no binding,no binding
"COV_2025 (antibody, V domains shown, human IgG1) VH: QVHLVQSGAEVKKPGASVKVSCKVSGYTLVELSVHWVRQAPAKGLEWIGGFDPEDGETIYAQKFQGRVTMTEDTSTDTAYMELTNLRSEDTAVYYCVTSQPFVSPNWFDPWGQGTLVTVSS VL: QSALTQPASVSGSPGQSITISCTGTSRDVGAYNYVSWYQQHPGKAPKLMIYEVTTRPSGVSNRFSGSKSGNTASLTISGLQAEDEADYYCSSYTGSRTLVFGTGTKVTVL",0.02,0.49,no binding,no binding,no binding
"COV_3077 (antibody, V domains shown, human IgG1) VH: QVQLQESGPGLVKPSETLSLTCAVSGYSISSGYYWGWIRQPPGKGLEWIGSIYHSGSTYYNPSLKSRVTISVDTSKNQFSLKLSSVTAADTAVYYCARALYDAFDIWGQGTMVTVSS VL: not shown",≥ 25,≥ 25,no binding,no binding,no binding
"COV_2172 (SEQ ID NO:872/877) (antibody, V domains shown) VH: EVQLVESGGGVVQPGRSLRLSCAPSGFTFSTYAMHWVRQAPGKGLEWVAVISYDGSIKYYADSVKGRFTISRDNTMNTVFLQMNSLRAEDTAVYFCAKGGERWELFTSFDYWGQGTQVTVSS VL: QSALTQPRSVSGSPGQSVTISCTGTSSDVGGYNYVSWYQQHPGKAPKLMIYDVSKRPSGVPDRFSGSKSGNTASLTISGLQAEDEADYYCCSYAGSYTFVFGGGTKLTVLG",3.99,≥ 25,no binding,no binding,no binding
"COV_2039 (antibody, V domains shown, human IgG1) VH: QVQLVQSGAEVKKPGASVKVSCKVSGYMLIELSMHWVRQAPGKGLEWMGGFDPEDAETIYAQEFQGRVTMTEDTSTDTAYMELSSLRSEDTAVYYCTTGPAVTNRPADYWGPGTLVTVSS VL: QSVLTQPPSVSGAPGQRVTISCTGSSSNIGASYDVHWYQQLPGTAPKLLIYANSNRPSGVPDRFSGSKSGTSASLAITGLQAEDEADYYCQSYDSSLSYSVVFGGGTKLTVL",0.01,1.8,no binding,no binding,no binding
"COV_2056 (SEQ ID NO:792/797) (antibody, V domains shown) VH: EVQLVESGGGVVQPGRSLRLSCAASGFTFSIYGMHWVRQAPGKGLEWVALISYDGTNKYYADSVKGRFSISRDDSKNTLYLQMNSLRPEDTAVYYCAKVLMMGDSSGFSLGDAFDIWGQGTMVTVSS VL: DIQMTQSPSSVSASVGDRVTITCRASQGISNWLAWYQQKPGKAPKLLIYAASSLQSGVPSRFSGSVSGTDFTLTISSLQPEDFATYYCQQANSFPLTFGGGTKVDIKR",7.46,≥ 25,no binding,no binding,no binding
"COV_2174 (antibody, V domains shown, human IgG1) VH: EVQLAESGGGLVKPGGSLRLSCAASGFTFSDYYMSWIRQAPGKGLEWVSYISSSGSTIYYADSVKGRFTISRDNAKNSLYLQMNSLRAEDTAVYYCARDWSVVVVPAAPAVDVWGQGTTVTVSS VL: DIQMTQSPSSLSASVGDRVTITCRASQGISNYLAWFQQKPGKAPKSLIYAASSLQSGVPSKFSGSGSGTDFTLTISSLQPEDFATYYCQQYNSYPLTFGGGTKVEIKR",0.502,2.04,no binding,no binding,no binding
"COV_1149 (antibody, V domains shown, human IgG1) VH: QVQLVESGGGVVQPGRSLRLSCAASGFTFSSYGMHWVRQAPGKGLEWVAVISYDGSNKYYADSVKGRFTISRDNSKNTLYLQMNSLRAEDTAVYYCAKTGGGYSYGLGNVWGQGTLVTVSS VL: QSALTQPASVSGSPGQSITISCTGTSSDVGGYNYVSWYQQHPGKAPKLMIYDVSNRPSGVSNRFSGSKSGNTASLTISGLQAEDEADYYCSSYTSSSTLVVFGGGTKLTVLG",≥ 25,≥ 25,no binding,no binding,no binding
"COV_2004 (antibody, V domains shown, human IgG1) VH: QVQLVQSGAEVKKPGASVKVSCKASGYTFTGYYMHWVRQAPGQGLEWMGRINPSSGGTNYAQKFQGRVTMTRDTSISTAYMELSSLRSDDTAVYYCATDGDDGENWFDPWGQGTLVIVSS VL: DIQMTQSPSSLSASVGDRVTITCRASQGISSWLAWYQQKPEKAPKSLIYAASSLQSGVPSRFSGSGSGTDFTLTISSLQPEDFATYYCQQYNSYPYTFGQGTKLEIK",0.04,3.64,no binding,no binding,no binding
"COV_2014 (antibody, V domains shown, human IgG1) VH: QVQLVQSGAEVKKPGASVKVSCKVSGYTLTELSMHWVRQAPGKGLEWMGGFDPEDGETIYAQKFQGRVTMTEDTSTDTAYMELSSLRSEDTAVYYCATGKINYYDSSGYYGTFDYWGQGTLVTVSS VL: AIQLTQSPSSLSASVGDRVTITCRASQGISSYLAWYQQKPGKAPKLLIYAASTLQSGVPSRFSGSGSGTDFTLTISSLQPEDFATYYCQQLNSYHLTFGQGTRLEIK",≥ 25,≥ 25,no binding,no binding,no binding
